The Km is the substrate concentration at which the rate is half of its maximum. As usually defined, the kcat/Km is the turnover number divided by the Michaelis constant.

Among the data in paper PMC4817253 are Km and kcat/Km values, retold here.

The data set deals with Nc1ncnc2c1ncn2[C@@H]1O[C@H](CO[P@](=O)(O)O[C@@H]2[C@H](O)[C@@H](CO[P@](=O)(O)O[C@@H]3[C@H](O)[C@@H](CO[P@](=O)(O)O[P@@](=O)(O)OP(=O)(O)O)O[C@H]3n3cnc4c(N)ncnc43)O[C@H]2n2cnc3c(N)ncnc32)[C@@H](O)[C@H]1O. Nature of the data set: purified protein. The following applies: pH 7.2; 30.0 °C.

On to “HKU5 NS4b (Pipistrellus bat coronavirus HKU5)”, for which the Km was determined as 1.3 ± 0.3 µM and the kcat/Km came out at 1.4e+06 M⁻¹ s⁻¹.
The corresponding values for “MERS-CoV NS4b (Human betacoronavirus 2c EMC/2012)” are 2.6 ± 0.6 µM and 800000 M⁻¹ s⁻¹.
On to “MHV NS2 (Murine hepatitis virus strain A59)”, for which the Km is reported as 6.7 ± 1.6 µM.
With SC2013 NS4b (BtVs-BetaCoV/SC2013), the Km is listed as 2.9 ± 0.6 µM and the kcat/Km came out at 800000 M⁻¹ s⁻¹.
